Experimental data published in paper PMC3302947.

Target: Vif(155–176) (PPLP peptide) (HIV-1)
Assay: AUC

Work on Vif(155–176) (PPLP peptide) yielded a stoichiometry N of 2.
